Patent US12037595B2, “Rust resistance gene” (Commonwealth Scientific and Industrial Research Organisation, priority 2013, dated 2024)

What was measured:
[1] = biological target: T1, Wheat Lr67 (susceptible) protein, Lr67(sus), SUT sugar transporter, SEQ ID NO:4 (Triticum aestivum, UniProt W5ELX6); test: Concentration-dependent uptake of [14C] glucose in yeast expressing Lr67(sus); assay type: cell-based; conditions: [14C] glucose uptake; Lr67(sus) expressed in hexose transport deficient Saccharomyces cerevisiae EBY.VW4000; Lineweaver-Burk linear regression
T1 construct: D-genome copy) in pRS416 with ADH1 promoter, expressed in S. cerevisiae EBY.VW4000 (hexose transport deficient)
T1 sequence (W5ELX6 1-514): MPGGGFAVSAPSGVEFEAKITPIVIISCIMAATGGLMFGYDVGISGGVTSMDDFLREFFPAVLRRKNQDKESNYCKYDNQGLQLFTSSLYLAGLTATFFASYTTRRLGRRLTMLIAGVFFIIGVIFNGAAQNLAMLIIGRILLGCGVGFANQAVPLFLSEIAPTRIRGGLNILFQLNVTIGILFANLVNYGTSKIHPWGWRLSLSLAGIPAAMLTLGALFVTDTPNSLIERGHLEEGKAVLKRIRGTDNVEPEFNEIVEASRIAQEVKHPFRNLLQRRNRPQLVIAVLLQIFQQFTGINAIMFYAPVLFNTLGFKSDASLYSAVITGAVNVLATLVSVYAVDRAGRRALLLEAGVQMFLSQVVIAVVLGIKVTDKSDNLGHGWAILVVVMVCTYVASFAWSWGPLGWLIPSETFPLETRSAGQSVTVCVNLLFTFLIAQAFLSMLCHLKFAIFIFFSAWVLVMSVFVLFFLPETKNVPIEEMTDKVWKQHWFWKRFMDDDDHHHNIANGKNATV
Experimental: (§1) The following experiments were completed using the protein coding regions for the Lr67 polypeptides (resistant and susceptible alleles) cloned into the yeast expression vector pRS416. This vector contained the constitutive ADH1 promoter and CYC1 terminator for expression of the inserted coding regions. The yeast strain employed was a hexose transport deficient variant of Saccharomyces cerevisiae named EBY.VW4000. Uptake was determined using radio labelled [^14C] glucose with incorporation radio-assayed by liquid scintillation counting.
(§2) The Lineweaver-Burk equation was used to convert data for linear regression analysis.

[2] = tested on: hexose transport deficient variant of Saccharomyces cerevisiae named EBY.VW4000; test: Glucose uptake by yeast cells expressing Lr67 polypeptides, radio labelled [14C] glucose; assay type: cell-based; conditions: 100 μM [14C] glucose for 10 minutes, tested at 2 minute intervals, vs empty vector, FIG. 11
Source text: as §1, with “EBY.VW4000.” for “EBY.VW4000. Uptake was determined using radio labelled [^14C] glucose with incorporation radio-assayed by liquid scintillation counting.”
as §2

[3] = substrate: OC[C@H]1OC(O)[C@H](O)[C@@H](O)[C@@H]1O; test: cells, lysate or membranes; conditions: other: [14C] glucose uptake; Lr67(sus) expressed in hexose transport deficient Saccharomyces cerevisiae EBY.VW4000; Lineweaver-Burk linear regression

Molecule | Vmax [1] | Glucose uptake over time [2] | Km [3]
OC[C@H]1OC(O)[C@H](O)[C@@H](O)[C@@H]1O (stereo partly shown) [glucose] | 3.02 nmol min^−1 g FW^−1 | – | –
Wheat Lr67 (susceptible) protein, Lr67(sus), SUT sugar transporter, SEQ ID NO:4 (Triticum aestivum) (protein) MPGGGFAVSAPSGVEFEAKITPIVIISCIMAATGGLMFGYDVGISGGVTSMDDFLREFFPAVLRRKNQDKESNYCKYDNQGLQLFTSSLYLAGLTATFFASYTTRRLGRRLTMLIAGVFFIIGVIFNGAAQNLAMLIIGRILLGCGVGFANQAVPLFLSEIAPTRIRGGLNILFQLNVTIGILFANLVNYGTSKIHPWGWRLSLSLAGIPAAMLTLGALFVTDTPNSLIERGHLEEGKAVLKRIRGTDNVEPEFNEIVEASRIAQEVKHPFRNLLQRRNRPQLVIAVLLQIFQQFTGINAIMFYAPVLFNTLGFKSDASLYSAVITGAVNVLATLVSVYAVDRAGRRALLLEAGVQMFLSQVVIAVVLGIKVTDKSDNLGHGWAILVVVMVCTYVASFAWSWGPLGWLIPSETFPLETRSAGQSVTVCVNLLFTFLIAQAFLSMLCHLKFAIFIFFSAWVLVMSVFVLFFLPETKNVPIEEMTDKVWKQHWFWKRFMDDDDHHHNIANGKNATV | – | capable of transporting glucose at a higher rate than yeast cells expressing the Lr67 resistant allele or empty vector | 73 µM
Lr67(res): Wheat Lr67 (resistant) protein, 514 amino acids, arginine at position 144 and leucine at position 387 (protein, listed as Triticum aestivum) MPGGGFAVSAPSGVEFEAKITPIVIISCIMAATGGLMFGYDVGISGGVTSMDDFLREFFPAVLRRKNQDKESNYCKYDNQGLQLFTSSLYLAGLTATFFASYTTRRLGRRLTMLIAGVFFIIGVIFNGAAQNLAMLIIGRILLRCGVGFANQAVPLFLSEIAPTRIRGGLNILFQLNVTIGILFANLVNYGTSKIHPWGWRLSLSLAGIPAAMLTLGALFVTDTPNSLIERGHLEEGKAVLKRIRGTDNVEPEFNEIVEASRIAQEVKHPFRNLLQRRNRPQLVIAVLLQIFQQFTGINAIMFYAPVLFNTLGFKSDASLYSAVITGAVNVLATLVSVYAVDRAGRRALLLEAGVQMFLSQVVIAVVLGIKVTDKSDNLGHGWAILLVVMVCTYVASFAWSWGPLGWLIPSETFPLETRSAGQSVTVCVNLLFTFLIAQAFLSMLCHLKFAIFIFFSAWVLVMSVFVLFFLPETKNVPIEEMTDKVWKQHWFWKRFMDDDDHHHNIANGKNATV | – | did not show detectable glucose transport activity above the control | –
